Experimental data as given in publication PMC7884259 (Journal of medicinal chemistry, 2020).
Positions count from the first letter of the chain named. Where no end group is shown, it is not given here.

T1: ATAD2B bromodomain (residues 953–1085) (human, UniProt Q9ULI0 953-1085)
T1 sequence (looked up): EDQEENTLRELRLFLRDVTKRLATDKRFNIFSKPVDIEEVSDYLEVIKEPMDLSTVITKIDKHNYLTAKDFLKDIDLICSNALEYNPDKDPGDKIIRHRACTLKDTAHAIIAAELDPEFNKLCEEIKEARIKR

T2: ATAD2B bromodomain N1038A (human, UniProt Q9ULI0 953-1085, N1038A)
T2 sequence (looked up): T1 sequence (looked up) with N86A


How the values were obtained:
[1] = target: T1, ATAD2B bromodomain (residues 953–1085); assay: ITC
[2] = target: T2, ATAD2B bromodomain N1038A; assay: ITC

Row | Binder | Kd [1] [µM] | Kd [2] [µM]
1 | SGRGK(Ac)GGKGL-NH2 [H4K5ac (res 1–10)] | 48 | –
2 | SGRGK(Ac)GGK(Ac)GL-NH2 [H4K5acK8ac (res 1–10)] | 28.1 | 623
3 | SGRGKGGK(Ac)GL-NH2 [H4K8ac (res 1–10)] | 1160 | –
4 | SGRGK(Ac)QGGKARA-NH2 [H2AK5ac (res 1–12)] | 42.5 | –
